The data set is described as follows: protease stability score; higher = more stable; yeast display proteolysis, trypsin and chymotrypsin.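 Further: relative to predicted unfolded state with 0 unfolded-like and 1 meaning tenfold more protease.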
“DEEERLLLEWVRLFLTAWETGDEKLQEKLMDPHARTDFNGVQLHGREEYSRFLSQLRIRRFHVRDESIRIVGNKAESEVDGEVEGEVNGQRFKQHTEIEIHSEKINGRWLWKSLTIRIK”: the protease stability score stood at 1.5.
For the sequence “SEEEEAKRDLDERWFRSIETGDFHTLEKLLDPHAKVRINGKDYHGREYLEWEIRDLGVKVMEQRVIIHREHRQGDKIHLQGEIIRILHVDGREEHHRFEVHYVMLKINGRWILHRMEFR”, the protease stability score was found to be 0.883.
In the case of “DEEEHELQEAIEILKHDIETGNWERFVKRADPHARIRFNGRDLHGWERMKEVFEHVSKEFQNQKVEFETEHYFDGRVEVIVNIRIGDKNIHMRIISDKINGQWITREVRFH”, the protease stability score was 1.41.
The value for “RELDEMAERAVEWYFRVLRTGDEHTLSRLLDPNVRVVFDGRTYIGREWYREHEEKLGVDHMRLDVKSVRNINGRIEVDVRVNREVNGQEIRIEMRMTSEKVDGRWEVKTVEEK” was 1.3.
“DEEDEANKQIMEHLRKVWDTGDFHTYLRLADPHMRFIVGDKIFHGREEITQLIKELLEKFGADHVELENSRESLVGDKLHLDLHTRYHFNGREIRVDVHNEVTKIDGKWHIKFLSLRIK” registered a protease stability score of 1.42.
Next, “DEDERFTKFAWELLVKALVTGDEDSLKDLFDPHARIFYNGRINHGRESFVKHLMEIRFKRIEMRRFDFFDGRVRMEGEVEGEVDGKEDHYRIEIVVKKYDGRWELKEFRLV”: 1.68; “TEDDRIFKEALELWVFAMNTGDERILFEMVDPHVRFVIGDKEYHGMEWRHKVLIELRIHRVRLEITHRDQFNGRIHIDGILQIDGEFNGRRDKTETEVRVTYTKFDGKWYYKEVIHL”: 1.44.
The sequence “TEDHERIKKHIEILMHNLKTGNFEALVRMADPHVRFRLVQGNFHDETHGRDAWREVLERLGIDHIEIRDIRIHLYDGRLEMRIDGISRFNGREHKVELIIIIDKIDGRWRISEVELRIE” registered a protease stability score of 2.15.
The value for “REIEKSLEESLKMWLENLVTGDERQLSELVDPDAKLEVGDKHHVGMETISHMIRHMRIESIEIKSIRIFDGRAEIHAYVLGNINGQRKDLNEKLHWEKINGRWEVRKILLE” was 2.13.
The value for “DESEEEMKKAFKDLVDSLLTGDEHLLRTFADPNMRLRIGDKTFHGRETYSEIFLKEWKKLGIKHYQVTIHHLEVQGDKIHVDTRVNVHIGDWTIHRETRLHITKVNGQWILRQEDVD” was 0.416.
As to “REEEEISKNIAELFEHTLRTGDEKLFLKLADPHVKNEQGEFDSVGREEWHRQFREILNKWGVDRIHSQERRFTDYDGRLEMHVEMRFNGKRVEVRMRVEKYDGRWILTELHIRIE”, the protease stability score amounted to 0.655.
For “SEHEEESHIAFEIYQKWVQTGDWEQLDHNFDPDTRVEINGVEHVGMEHFHELEKRLHEHLGISKINSHVKHFEIFDGRLELFTIMEFNGRRIRTHHIAHKVNGRWRIKSIRFE”, the protease stability score is 1.43.
The value for “DEEEKLARKIVEDWVRAMTTGDEDDLRRLADPNVRHDINGVELHGMDEWLRVLLERGYEIRIQFRHIRVYDGRVEIDIDLEIRIGDKHHHHHVHLIFEKIDGRWRMKSEKTD” was 1.9; that for “TEDHEDLRRFWEYFEEAFRTGDWKALSDLADPNVKIRIGDKLHVGRDDYYEFLRELIERVDHMELRLKRVHLVGDKLHVDSTLDLHVNGKRIHSRSRFTFTKVDGKWKVESVHYE” was 1.61.
The value for “SETEENAEHVVREWFEMITTGDEDEVLRLMDPHVRVRIGDKIIHGREIFLAHMRHWRIKNKHFEIEHMHFYGDKAVLDGRLVGEETVDGKHRTYDRRVDFNLVKIDGKWHIREFHVD” was 1.52; that for “DEEKRLLEEAARHMVDSWRTGDEEVIERMMDPHDKLILYINGVNFDLHGREIVSRWIKEELDEIRIRINVEDIKVFNGVAFVDGELRVEINGREKRVKEEIILFIIDGRLKSHEIRRH” was 1.23; that for “REDEKLFEEVLRELVKWLTTGDEKQMRDLFDPNARREVNGVEVHGWEEFLRHVREDRKRYDHVKDIEIHHIDIQGDKLEINVTLVGHIDGKEDVIIFTILLRKVNGKWIVKEIQFH” was 1.52.
The value for “SEDEDNMHEFFRIWSRVQETGDEEAMLKLMDPNVRTDINGVELHGREEFEKELHRLIFEWGFDRFVVHIEHEDIFNGRIHVRSRVIYGDKEVHVIIHVYKVNGQWRVEELRFE” was 1.41.
In turn, “DEKQEFIERIAKELLDSWLTGDEEHLRNMMDPHVRTDVNGREFHGREETIKAMQILGVDHLEIKDYRVINGRIHANSRMWIGDKQIETHLILRVVNGRVKEIKIEIR” came in with a protease stability score of 1.97.
Next, “SEHDERRRRVLELWFHALHTGDEEKLQELMDPDARLDINGVKLHGRDKLIEFFREWRFKHVDIHDMDEFNGVVNIKIEHVEIYNGQHRRVETRIFLIKINGRWHFRHIELH”: 1.66.
Next, “DELKRYLEELVRRVLQATLTGDEDHFSHLADPTTRLILEDEDHHVENHGREDVRRFMEEHFRRVDHWHISLRRLHPVGNKMHSTGTLRVTFDGVKVDVEVRNHFVMVDGRIKFWKIEFI”: 1.23; “DEDEKLMEETLKVLIRAFDTGNWEDLKRMVDPHVRIYFNGRIFHGREFFMEYVIHLRHHARIHLELKDIEVQGDKAHADSRVLVIQGDKSWEFDLEINMTKYDGRWHIKTIKIR”: 2.68; “SEEEKDARDFIDYLVHHLETGDEEEFEKLIDPHTRLQVDGRHFHGREAYEWMLYQFKNVKIKHLTIRHIEIQGDKVHITSTWNLIVDGQEKELRTHIILDKVNGRWMIRKMRIQ”: 1.8.
Next, “DEEEQLFHEAHDKFIKIMETGDWKDFHRNFDPDAKIEVGDKDKHGREEATEMLKFILDLLGVDHVLVKRLRIYGNKIESDVVFNVNGVEQRFHLISVKINGKWRTHKIVLR”: 1.23; “HEQEKFVREYFELWVRAFLTGDEDTILDMMDPDVRIIYGDKTVVGWKELHKFLKRVDHARIKFEFRNTRYDENEAEVDGHRIVHLFFDGKIFDITTQIHVHMVKIDGVWTMKTIVNK”: 1.55; “DEEHEWAQRIIEYLSKNEKTGDEDSARELADPNMRFEIDGVEIVGMETWVRRFLELRVEDLTMDVEHIHVQGNFVHIQTRLELHGHINGRRTRYTTTMRLFVLKINGKWIITHVKYE”: 1.45.
“SEDEEMIRELAEIFIKNWETGDEEDRWKLMDPNARIEVNGKQNHGREEDERHSKELGFKHIEVRIKRSRIVGDKAEIDGELYMRYDGKTEHVKVHIHVQIVDGRIKIVSFKIR” had a protease stability score of 1.31.
For the sequence “DDEEREVHKATEDWFKLVKTGNEEVRHELLDPHTRLIIGDKEFHGREELLRWERELGYKFKTFIITDIKVQGNKAIIHGVDVGTINGVERHLDVRLLILKVNGKWITREIEVR”, the protease stability score stood at 1.62.
Sequence “TEEKEEIDHAFELIWKAIDTGDEKFMTEQADPHTLTILVVDGQEIRLHGMEEFVRTFRELGIKHVRLEDIRIQGNKVEIHIRTNFNGRESEMRVHMEKVDGRWVLRSHRVIFK” gave a protease stability score of 1.36.
“DELKKILDEYIEDHLRAVHTGDEDRVKHQIDPHVRIDVNGVELIGMEDWKKFLDILGVDNIQVDRYEIKDYHLVGDKATLHEHRDVKYNGVRSRHNINFVVQKIDGKWYFTEYQTE”: the protease stability score was 0.399.
Take “TEEEKLARFAWHLRLHAEETGNEELIETLMDPNVKIDIDINGREIHMIGREEYIRWFNEYGFKHVEHVDEREMRVQGDYLDIRGRVIFHVNGQRIDTETQHHILVVDGRIKEIHDIYH”: the protease stability score came out at 1.69.
As for “SEDHEATHLIVELLERALKTGNERLWKDLFDPNVRIDINGKYFHGREEYVHFFKEWRFHDSRVHVHEVRVNEHELHIHGEVESHVTYNGQHRNLRLETTLFVIKVNGRWLFRHIEVR”, the protease stability score is 1.5.
The value for “DEKEDHMRKIALILIKDWLTGNEESLRHMADPNVRVHIHQGNKNIHKHGMEALRELWEEIRIRHFNLERQNVINGVVFIDGRVDGEVDGRRVDTDVEVIIVIVNGRMKLLSRHIE” was 1.34.
As for “SEEEDMKRKLAEIFLHNELTGNEDRLMELLDPNTRMEFNGREVHGREQISEVLRRWLEEIRIDDSKLHDIRVINGVAHIDVRLRGTVDGRHTILQVHLYLFVVNGRIKSFRIEIR”, the protease stability score is 1.53.
As to “SEEERQLHEFAELIVHDLLTGNFELLSSLLDPHARMEINGKRFHGWTQILDILHRIWLHLRIRDRQVRRVEVYNGRINSRIEVDGEINGRRISLDELLILVVVDGRIRSESIHFE”, the protease stability score came out at 1.03.
Regarding “DETTETLLRISESNIRNWETGDFDTIKQLLDPHVRMEQGDKTNHGRERVAKSWTEFLRELRLKTVHLHEVDVQGEKALSHVILFVKIGDKKIEVEAHLLVVVIDGKVSSIHITIK”, the protease stability score is -0.305.
As for “SDVEEMLHRIARLIVHNLFTGDWEDLVRMMDPHARYIVNGKESVGWRRVTEMLRRHHEELRIREIRIRHIEVYNGKAELHLEVNEEVNGREVSLDTRLHVLTINGVIRSIHIEVE”, the protease stability score amounted to 0.719.
The value for “DEHKDLAHKAITNFIEWTETGDFEMFLKLFDPNMRLRVDGQHHHGWHDVFRVFREMGYEIKSVKMDDVEIQGEKITVDLRVHVDINGQHEDIKTRYFFSKYDGKWIIEQIQVV” was -0.276; that for “DERHDDSRDLAHIFLHLLHTGDEDTIQEYLDPNAKYTLNINGVRVIMHGRETITRHWKEWLDKFKNATIHINDSTVQGDKVHNHTSMEINGQTHNTWIVVVVFNGKVRMIIVDVI” was 1.29.
The value for “SEEEKEAEEFLRKHLHDRLTGDEDWVLRNIDPNARFDINGREIIGMEEWRQWLHEARVRVDDTQIDEKRSVGNKLDVRSTMHVTIEFDGVRVKHILDVELIMTKVDGKWKVKEVRVR” was 1.61; that for “SEEEELLRRLFELFYKIWHTGDFRSLYENADPNTQLDVGDKRFHGMEVVIEALRQIWEKFGFKVELIDEHHVINGQINMDGLLDINGKKMKTHINLRLIDGVMKTIRIDIR” was 0.049; that for “SETEESLRRYIEDWLTALSTGNEDTLKRLMDPSTRVTVDGVEYHGRSALEEFIKRVDVIHRSDRHDFKIQGEKVHVDVRMDVHIDGQKHTLHSHWLILKINGRWVIHELIFE” was 1.99.
The value for “DEEEKHSEDIADLMLRWWLTGDFELLAKYADPRVRLDINGREFHGREEYEEVMKDLIRRFKNVKIEIRDYEIQGEKVHVDTRLHINGKTHTVHLTFVVIDGVIKSESIRVR” was 1.27; that for “TEEHEVALRFWRMFLEAITTGDEKRIKELLDPHVQIEINGKHLHGMETLIHRINEIRETWKHVEIKTVEFYNGQIHSHFRVHYVFHVNGKEIERDTDVLLILTKVDGRWHIKSIHIH” was 2.52.
For the sequence “DEDEKSVKYAFTMYMQNITTGDEDTLKKYLDPNVKLHFNGVNLHGMESLNKWIREIRHRVRHVHFKDVRVIDGVLIVHIEWEVREDIDGQETEDRYIVRMIVLKIDGKWILRESQIL”, the protease stability score is 1.74.
“DEEHRKLKKFVRESMEDHRTGDEDRRNELLDPNVRIEIGDKTFHGREDDKKWLEEFGVDHVEIRIRHIDIIGNKAIIDSELRIFVNGRILEFDTIIYAEKYDGRWVHHSVQVR”: the protease stability score amounted to 0.077.
The sequence “DEEKHLALFLYRILVKWWLTGNEEDESHLADPHTRFEVNGVELIGRELSSHMIERELREIRVIIEIEEFRTVGDKVDIRLTLKYEYGDKEDSRESHLELIIIDGKTTHVEVRER” showed a protease stability score of 1.6.

(Values after the NTF2 design screens of Basanta et al. (2020).)
